Molecular target: the molecule itself
Test: SDS-PAGE / Western blot, self-association
Protocol: SDS-PAGE and immunoblotting. The purity of cathelin-like or hCAP18/LL-37 protein was first confirmed by SDS-PAGE followed by Coomassie blue and silver staining. For Western blot, protein was separated by SDS-PAGE and was then transferred to nitrocellulose membranes using the Bio-Rad system. Membranes were blocked for 1 h at room temperature with 0.1% low fat milk in 50 mM Tris-HCl, pH 7.5, 150 mM NaCl, 0.2% Tween-20, and were probed overnight at […] with chicken polyclonal anticathelin-like antibodies (1:15,000) to detect cathelin-like protein or with rabbit anti-LL-37 antibodies (1:6000) to detect full-length hCAP18/LL-37, followed by extensive washing. Immunoreactive materials were detected by enhanced chemiluminescence using horseradish peroxidase conjugated antichicken antibodies (1:20,000) or horseradish peroxidase conjugated antirabbit antibodies (1:5000).

B1: His-tagged cathelin-like fusion protein (before enterokinase digestion), approximately 16 kDa (other, not shown: small tags and cut ends)
chain: QVLSYKEAVLRAIDGINQRSSDANLYRLLDLDPRPTMDGDPDTPKPVSFTVKETVCPRTTQQSPEDCDFKKDGLVKRCMGTVTLNQARGSFDISCDKDNKR
notes: also called His-tagged cathelin-like protein before cleavage; cathelin-like protein before digestion with enterokinase
Question: Does B1 bind?
Answer: binds
